The text below walks through data of patent US20150368616A1, “METHODS FOR INDUCTION OF CELL FATES FROM PLURIPOTENT CELLS” (THE CLEVELAND CLINIC FOUNDATION, priority 2013, published 2015).

The test system of one assay is Ngn3. The assay is described as follows: Mutational series of Ngn3 in the HepG2 stability assay. Type of assay: cell-based. The source says:
FIG. 66 (A-B) illustrates a mutational series of Ngn3, designed to stabilize the protein. A. listing of site directed point mutations. B. Testing of five substitution mutants.
Combined, these analyses served to focus us on the presence of lysines in the Helix 1/loop region and highlighted the importance of N-terminal acetylation protection as well. Of note, The K^118LTK^121 motif in the loop is completely conserved in Ngn3 in vertebrates, including teleosts and amphibians, and also between Ngn family members. Our approach to stabilizing Ngn3 is therefore to create an exhaustive point-substitution series of K>R to cover the entire protein (FIG. 66A), and also create deletion mutants of the N-, and C-termini flanking the bHLH domain. Because K121 is completely conserved in the bHLH family group, and positioned so that it aligns with the Helix 1 axis, this residue is likely critical for the folding/binding dynamics of the HLH domain, and mutation of this may likely impact DNA binding/function. Such constraints are not evident for K^118. We will also substitute the T120 residue in the KLTK loop to a Glutamic acid (E) to mimic a possible stabilizing phosphorylation event, which, based on phylogenetic comparisons to MASH1 may be of importance. […]

The subject of assay [1] is stage 4 forward directed differentiating hES culture. Nature of the assay: Wnt3a at stage 4 of directed differentiation, RT-qPCR and immunohistochemistry. The format is cell-based, human. As to the method: Panel A—Schematic representation of the two different directed differentiation protocols used throughout this series of experiments. The only difference between the two different differentiation protocols is the inclusion of Wnt3a at stage 4 of the directed differentiation protocol as illustrated. Control Cultures and cultures which had Wnt3a administrated at stage 4 were incubated an additional 4 days in maturation medium before RNA extractions and immunohistochemical analysis were performed. Panel B—An RT-qPCR analysis of the two differing conditions. Transcripts assayed are the endodermal marker FoxA2, the pancreatic progenitor marker Pdx1, the TrPC marker Nkx6.1 and the two endocrine markers Glucagon and Insulin. Note two different primer sets were used for insulin.
Panel C-J—Immunohistochemical analysis of stage 5 (day 4) cultures differentiated in the presence and absence of Wnt3a at stage 4. Panels CD and E-F compare the relative levels of C-peptide and Pdx1 respectively between the two differing differentiation protocols. Panels G-J show the combined expression of C-peptide and Pdx1 at both 10× magnification (panels G-H) and 20× Magnification (panels I-J).
To investigate the role of a canonical Wnt input on a PDX1+ progenitor population, Wnt3a was administered to a stage 4 forward directed differentiating hES culture. […] The relative expression of Pdx1 was increased over ˜5 fold over stage 4 cultures lacking the canonical input and relative transcript levels reached ˜3000 fold over hES controls. While Nkx6.1 levels were modest in comparison, only reaching a ˜3.3 fold increase over the stage 4 cultures lacking the canonical input and a relative transcript fold increase of ˜200 over hES controls. […] Both Glucagon and Insulin relative transcript levels were ˜2 fold greater in stage 4 cultures treated with Wnt3a as compared to stage 4 cultures lacking the canonical Wnt drive (FIG. 62 panel B). While there was a ˜5000 fold increase in Glucagon transcript levels and a ˜2500 fold increase in Insulin transcript levels when compared to hES levels. As a means to confirm the accuracy of the relative Insulin transcript levels two different set of primers were used and both primer sets produced similar results. In addition immunohistochemical analysis of these two different reactions was used to confirm the transcript analysis.

The next assay deals with H1 hES cultures. Nature of the assay: Pan-CM induction with reduced serum levels and Wnt3a on the first day, transcript analysis. The format is cell-based, human. The source says:
FIG. 16 (A-B)—Reduction of serum levels increases endocrine formation. Pluripotent cultures were passaged onto matrigel and maintained in MEF-conditioned medium for three days before being induced to differentiate by exposure to Pan-CM. Three different conditions were used as outlined in panel A. In the first condition Pan-CM was supplemented with Wnt3a on the first day followed by a 0.2% concentration of FBS for the rest of the reaction. In the second condition Pan-CM was supplemented with 0.2% FBS for the second day on. In the third condition Pan-CM was supplemented with 2% KO serum replacer.
The Pan-CM mediated induction of insulin producing cells from the H1 hES cultures is improved when low concentrations of serum is used. […] Finally it was noted that lower levels of serum reduced to levels of MEOX1 (a gene associated with the mesodermal lineage) observed in these cultures.

The test system of another assay is pluripotent cultures. The assay is described as follows: Defined (cell conditioned) medium versus Pan-CM, 5 day induction with serum variations and Wnt3a. Type of assay: cell-based, human. To be noted: Wnt3a on the first day of the induction, 5 day induction period. The procedure: FIG. 44 (A-B)—Cell conditioned medium improves over the Pan-CM induction of pluripotent cells. Pluripotent cultures were passaged onto matrigel and maintained in the presence of MEF conditioned medium for 3 days to maintain pluripotency. They were next subjected to either Pan-CM or our cell conditioned medium supplemented with either 2% KO serum replacer or low concentrations of FBS as defined in panel A. The addition of Wnt3a on the initial day of differentiation was also assayed. […] Note the occurrence of the trunk progenitor cell is best defined with the loss of NKX6.1.
We next explored the ability of our defined medium informed from the transcriptome and sectretome analysis of the Pan-MEF cultures to induce the differentiation of pluripotent cells towards pancreatic fates. This was performed in short term cultures with incubation periods only lasting 5 days (FIG. 43).

The mark [2] stands for this setting: Wnt3A added to Pan-CM on the first day, then 0.2% FBS.

B1: K86/87 to Arginines: Ngn3 substitution mutant, lysines K86/87 replaced by Arginines, stabilized Ngn3 (protein, UniProt P70661 1-214, looked up, variant K86R K87R)
Neurogenin-3: MAPHPLDALTIQVSPETQQPFPGASDHEVLSSNSTPPSPTLIPRDCSEAEVGDCRGTSRKLRARRGGRNRPKSELALSKQRRSRRRRANDRERNRMHNLNSALDALRGVLPTFPDDAKLTKIETLRFAHNYIWALTQTLRIADHSFYGPEPPVPCGELGSPGGGSNGDWGSIYSPVSQAGNLSPTASLEEFPGLQVPSSPSYLLPGALVFSDFL
As to B1, the Ngn3 protein stability entry in the assay with Ngn3 is reported as “lead to stabilization”.

B2: Wnt3a: canonical Wnt ligand (protein, UniProt P56704 19-352, looked up)
Protein Wnt-3a: SYPIWWSLAVGPQYSSLGSQPILCASIPGLVPKQLRFCRNYVEIMPSVAEGIKIGIQECQHQFRGRRWNCTTVHDSLAIFGPVLDKATRESAFVHAIASAGVAFAVTRSCAEGTAAICGCSSRHQGSPGKGWKWGGCSEDIEFGGMVSREFADARENRPDARSAMNRHNNEAGRQAIASHMHLKCKCHGLSGSCEVKTCWWSQPDFRAIGDFLKDKYDSASEMVVEKHRESRGWVETLRPRYTYFKVPTERDLVYYEASPNFCEPNPETGSFGTRDRTCNVSSHGIDGCDLLCCGRGHNARAERRREKCRCVFHWCCYVSCQECTRVYDVHTCK
With B2, in assay [1], the “Glucagon and Insulin relative transcript levels compared to stage 4 cultures lacking the canonical Wnt drive” value is about 2 fold; the “Glucagon transcript levels increase compared to hES levels” value is about 5000 fold; the “Insulin transcript levels increase compared to hES levels” value is on record as about 2500 fold; the “Nkx6.1 increase over the stage 4 cultures lacking the canonical input” value was about 3.3 fold. Moreover, in assay [1], the “Nkx6.1 relative transcript fold increase over hES controls” value is recorded as about 200 fold, the “Pdx1 relative expression over stage 4 cultures lacking the canonical input” value is over 5 fold and the “Pdx1 relative transcript levels over hES controls” value was about 3000 fold. In the assay with H1 hES cultures (setting [2]), this molecule displayed an HNF1-B up regulation of about 55 × and an HNF6 up regulation of about 85 ×. Also, in the assay on H1 hES cultures (Wnt3a on the first day of differentiation in Pan-CM), the insulin transcript levels result was “comparable to the Pan-CM induction with 2% KO serum replacer”. Further, in the assay on pluripotent cultures, the NKX6.1 expression result is “improved”.
